This passage reports Ldo co-immunoprecipitation compared to Ldb16 1-133 (% lower than 1-133) results from article doi:10.1101/2025.03.14.642698.

In assay [1] the target is Ldb16 (1-133 ΔH)-FLAG, genomically expressed (S. cerevisiae) (UniProt P25587). Put plainly: co-IP.
Assay [2] addresses Ldb16 (1-133 6A)-FLAG, genomically expressed (S. cerevisiae) (UniProt P25587). Put plainly: co-IP.

B1: Ldo45-HA, endogenously tagged (natural protein)
chain: MAARNRRKNNKKKSLLVTSAAQEKNATYVLVAEELHKKTIDLNMGTETPLTENHENPIPAKEFKHQQKLEPIDEHDDGEDELSIKFKSMTKSSGPITEAEVQKLLLSYAFTSAAIQEDENEKESRHYPIKPPSPSASSLSAYFQSFVEKCKQVFYNFSLQTVEKLNALQNSLYEVFWIIFIYLNYWFPNVGDYVSNTFGQQDSIIIRISLSKSHFRALREKSSQKVQQAVKNIYFCFQEKPYLTAFKVSFAIGLVIPCSLLFLIMVSTATFFFFVYLTLFVVIGFFSSLFIIPLLGISFVFAIGVVSFGFCSNMSFKMAQLIYVRADAFLKKVLDKMALQTQPAQLQEPQEPLSTLRPVSNPTIPSPLRQTARPSKFVTEEDVIFEPVSAQSAIARSLETTANKAGNKFQLS
Turning to B1, the Ldo co-immunoprecipitation compared to Ldb16 1-133 (% lower than 1-133) in assay [1] and in assay [2] was 50 throughout.

B2: Ldo16-HA, endogenously tagged (natural protein)
chain: MVSTATFFFFVYLTLFVVIGFFSSLFIIPLLGISFVFAIGVVSFGFCSNMSFKMAQLIYVRADAFLKKVLDKMALQTQPAQLQEPQEPLSTLRPVSNPTIPSPLRQTARPSKFVTEEDVIFEPVSAQSAIARSLETTANKAGNKFQLS
As for B2, the Ldo co-immunoprecipitation compared to Ldb16 1-133 (% lower than 1-133) in assay [1] and in assay [2] was 50 each time.
